Measured values published in patent US20090029370, “REAL TIME NUCLEIC ACID DETECTION IN VIVO USING PROTEIN COMPLEMENTATION” (TRUSTEES OF BOSTON UNIVERSITY, published 2009).

T1: Rex peptide (printed HIV-1 Rex in tables, HTLV-1 Rex in text) (Human T-cell leukemia virus type 1?)
T1 chain: MPKTRRRPRRSQRKRP

T2: λN peptide (Bacteriophage lambda, UniProt P03045 SEQ:1-22)
T2 chain: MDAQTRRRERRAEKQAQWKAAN

B1: λN aptamer (boxB) (ssRNA)
RNA: GGAUCCGGGCCCUGAAGAAGGGCCCUUUCCUUU
B2: anti-Rev aptamer (ssRNA)
RNA: GGCUGGACUCGUACUUCGGUACUGGAGAAACAGCC
B3: anti-Rex aptamer (ssRNA)
RNA: UAGGCGACGGUACGCAAGUACUCUUGCGCCGGCCUA

Assays:
Conditions in all cases: protein: synthetic; tags: custom-synthesized peptide
[1] = molecular target: T1, Rex peptide (printed HIV-1 Rex in …); experiment: EMSA; 50 mM Tris-HCl pH 8.0, 50 mM KCl, 30 C
λN peptide = molecular target: T2, λN peptide; experiment: EMSA; 50 mM Tris-HCl pH 8.0, 50 mM KCl, 30 C
[2] = molecular target: Rev peptide (printed HTLV-1 Rev); experiment: EMSA; cross-reactivity; 50 mM Tris-HCl pH 8.0, 50 mM KCl, 30 C
[3] = molecular target: T1, Rex peptide (printed HIV-1 Rex in …); experiment: EMSA; 50 mM Tris-HCl pH 8.0, 50 mM KCl, 30 C, ethidium bromide stain
From the text: Experiments in vitro to choose aptamer-peptide pairs. Based on available data we chose three peptide/aptamer pairs; (i) […]; (ii) Bacterophage λN; and (iii) […] (see Table 1) and tested their binding affinity with cognate partner and cross-reactivity with two other RNA aptamers in vitro. We used non-radioactive gel-shift assay under conditions when fixed concentrations of RNA aptamer were allowed to form complexes with increasing ARM-peptide concentrations. We quantified the amount of the unbound RNA aptamer and the amount of the shifted complex (Table 1). […] At the same time, […] peptide did show some cross-reactivity with the two non-matched RNA aptamers.
In Vitro Gel-Shift Assay. RNAs were first denatured by heating at 95° C. in buffer (50 mM pH 8.0 Tris-HCl, 50 mM KCl) for 3 minutes and then slowly cooled to room temperature to renature the RNAs. Renatured RNAs and peptides were mixed in a common buffer (50 mM Tris-HCl, pH 8.0, 50 mM KCl) at 30° C. for 15 minutes. Peptide-RNA aptamer complexes were analyzed using gel electrophoresis with 15% TBE gel. RNA aptamers and peptide-RNA aptamer complexes were stained with ethidium bromide.

| Binder | binding result [1] | binding result (λN peptide) | binding result [2] | binding result [3] |
| --- | --- | --- | --- | --- |
| B1 | no binding | binds | binds | – |
| B2 | no binding | no binding | – | – |
| B3 | – | no binding | – | binds |
